Measurements from article PMC4595758, “Redox-switch regulatory mechanism of thiolase from Clostridium acetobutylicum” (Nature Communications, 2015).
Residue numbers refer to the chain shown, from its start. Names may count otherwise.

B1: Clostridium acetobutylicum thiolase (CaTHL), wild type, oxidized form (enzyme, UniProt P45359 1-392, looked up)
chain: MKEVVIASAVRTAIGSYGKSLKDVPAVDLGATAIKEAVKKAGIKPEDVNEVILGNVLQAGLGQNPARQASFKAGLPVEIPAMTINKVCGSGLRTVSLAAQIIKAGDADVIIAGGMENMSRAPYLANNARWGYRMGNAKFVDEMITDGLWDAFNDYHMGITAENIAERWNISREEQDEFALASQKKAEEAIKSGQFKDEIVPVVIKGRKGETVVDTDEHPRFGSTIEGLAKLKPAFKKDGTVTAGNASGLNDCAAVLVIMSAEKAKELGVKPLAKIVSYGSAGVDPAIMGYGPFYATKAAIEKAGWTVDELDLIESNEAFAAQSLAVAKDLKFDMNKVNVNGGAIALGHPIGASGARILVTLVHAMQKRDAKKGLATLCIGGGQGTAILLEKC
notes: Thiolase (acetyl-CoA acetyltransferase) of Clostridium acetobutylicum, amino acid residues 1-392, amplified from the chromosome and cloned into pET30a; In the crystal (oxidized form) a disulfide bond joins Cys88 and Cys378, and residues 280-292 are disordered; Two molecules per asymmetric unit; the tetramer is generated by crystallographic symmetry; also called C. acetobutylicum thiolase; type II …
B2: Clostridium acetobutylicum thiolase C378S mutant (reduced form of CaTHL) (enzyme, UniProt P45359 1-392, looked up)
chain: B1 chain with C378S
notes: Thiolase (acetyl-CoA acetyltransferase) of Clostridium acetobutylicum, amino acid residues 1-392, with the C378S mutation made by site-directed mutagenesis; Crystallized with 10 mM DTT; For the CoA complex the crystals were soaked with 30 mM CoA for 30 min; also called CaTHL C378S mutant

Experiments:
[1] = target: the molecule itself; experiment: crystal structure; oxidized form of CaTHL, 1.77 Å, space group P2(1)2(1)2, two molecules per asymmetric unit, tetramer generated by crystallographic symmetry; crystals from 100 mM phosphate-citrate pH 4.2, 10% PEG 3,350, 200 mM sodium chloride at 293 K
[2] = target: the molecule itself; experiment: crystal structure; CaTHL C378S (reduced form, 10 mM DTT) crystals soaked with 30 mM CoA for 30 min, 1.90 Å, space group P2(1)2(1)2

| Protein | stoichiometry N [1] | binding result [2] |
| --- | --- | --- |
| B1 | 4 | – |
| B2 | – | binds |
